The chains are these.
T1: OprM deleted of the flexible C-terminus residues 473-485 (OprMΔCter) (P. aeruginosa (PAO1 genome as template), UniProt Q51487 18-472)
T1 construct: signal peptide in the construct (forward primer begins at the ATG of the precursor); OprM of Pseudomonas aeruginosa PAO1 without its last 13 residues 473-485; PCR fragment NdeI-XmaI in pBAD33; also called OprM∆Cter; source: E. coli C43 deleted of acrB, pBAD33, purified (Ni-NTA, Superdex 200) in DDM
T1 sequence (looked up): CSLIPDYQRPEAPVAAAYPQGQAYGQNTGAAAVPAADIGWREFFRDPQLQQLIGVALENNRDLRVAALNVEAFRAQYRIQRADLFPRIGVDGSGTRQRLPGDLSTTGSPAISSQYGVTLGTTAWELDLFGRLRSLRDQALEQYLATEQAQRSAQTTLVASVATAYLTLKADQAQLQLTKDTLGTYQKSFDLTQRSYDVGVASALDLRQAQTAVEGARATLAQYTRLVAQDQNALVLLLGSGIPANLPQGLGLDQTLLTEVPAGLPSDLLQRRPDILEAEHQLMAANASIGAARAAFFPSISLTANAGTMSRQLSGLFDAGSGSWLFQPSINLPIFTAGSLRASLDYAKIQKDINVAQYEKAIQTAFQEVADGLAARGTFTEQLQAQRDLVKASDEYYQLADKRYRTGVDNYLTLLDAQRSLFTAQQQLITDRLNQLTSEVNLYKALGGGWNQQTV

B1: OprM (wild type, full-length) (natural protein)
chain: CSLIPDYQRPEAPVAAAYPQGQAYGQNTGAAAVPAADIGWREFFRDPQLQQLIGVALENNRDLRVAALNVEAFRAQYRIQRADLFPRIGVDGSGTRQRLPGDLSTTGSPAISSQYGVTLGTTAWELDLFGRLRSLRDQALEQYLATEQAQRSAQTTLVASVATAYLTLKADQAQLQLTKDTLGTYQKSFDLTQRSYDVGVASALDLRQAQTAVEGARATLAQYTRLVAQDQNALVLLLGSGIPANLPQGLGLDQTLLTEVPAGLPSDLLQRRPDILEAEHQLMAANASIGAARAAFFPSISLTANAGTMSRQLSGLFDAGSGSWLFQPSINLPIFTAGSLRASLDYAKIQKDINVAQYEKAIQTAFQEVADGLAARGTFTEQLQAQRDLVKASDEYYQLADKRYRTGVDNYLTLLDAQRSLFTAQQQLITDRLNQLTSEVNLYKALGGGWNQQTVTQQQTAKKEDPQA
notes: OprM, outer membrane factor of the MexAB-OprM efflux pump, Pseudomonas aeruginosa; wild type, 'OprM full-length'; The pure protein was reloaded on Ni-NTA for the detergent exchange, so the His tag was probably still on it; Natural OprM is a lipoprotein whose signal peptide is cut on export; also called OMF; outer-membrane factor channel; source: E. coli C43 deleted of acrB, pBAD33, purified …
B2: MexA (natural protein)
chain: CGKSEAPPPAQTPEVGIVTLEAQTVTLNTELPGRTNAFRIAEVRPQVNGIILKRLFKEGSDVKAGQQLYQIDPATYEADYQSAQANLASTQEQAQRYKLLVADQAVSKQQYADANAAYLQSKAAVEQARINLRYTKVLSPISGRIGRSAVTEGALVTNGQANAMATVQQLDPIYVDVTQPSTALLRLRRELASGQLERAGDNAAKVSLKLEDGSQYPLEGRLEFSEVSVDEGTGSVTIRAVFPNPNNELLPGMFVHAQLQEGVKQKAILAPQQGVTRDLKGQATALVVNAQNKVELRVIKADRVIGDKWLVTEGLNAGDKIITEGLQFVQPGVEVKTVPAKNVASAQKADAAPAKTDSKG
notes: MexA, periplasmic membrane fusion protein of the MexAB-OprM efflux pump, Pseudomonas aeruginosa; wild type; The pure protein was reloaded on Ni-NTA for the detergent exchange, so the His tag was probably still on it; Natural MexA is a lipoprotein whose signal peptide is cut; also called MFP; periplasmic membrane fusion protein; source: for one experiment exchanged into C12E8 on Ni-NTA

Series [1] concerns the molecule itself. Description: SEC; Superdex 200 gel filtration in TBS (20 mM Tris-HCl pH 8, 150 mM NaCl) with 0.05% DDM, last step of the purification.
The target in the series “MexA” is B2. Put plainly: pull-down; PG of P. aeruginosa, DDM; MexA and OprM mixed at 3:1 compared with 2:1; ratio in the retained complex from relative band intensities on SDS-PAGE. The conditions noted are these: both partners purified.
In series [2] the target is T1, OprM deleted of the flexible C-terminus …. Put plainly: pull-down; purified insoluble PG of P. aeruginosa PAO1 as the pelleted matrix; MexA and OprM pre-mixed 2:1 (PG:MexA:OprM 100:2:1); 20 mM Tris-HCl pH 8.0, 300 mM NaCl, 0.05% DDM; 1 h room temperature; three washes; pellet on SDS-PAGE; proteins released by lysozyme. The conditions noted are these: both partners purified.

The target of series [3] is B1. Description: pull-down; purified insoluble peptidoglycan (PG) of E. coli C43 as the pelleted matrix; MexA and OprM pre-mixed 2:1 (PG:MexA:OprM 100:2:1); 20 mM Tris-HCl pH 8.0, 300 mM NaCl, 0.05% DDM; 1 h room temperature; three washes; pellet on SDS-PAGE; proteins released by lysozyme. As to conditions: both partners purified.

One may read the stoichiometry N as a count of units in the complex or per binding partner. For the molecule B1, the “stoichiometry N” value in series [1] is 3; with MexA, 2 MexA:OprM.
B2: the binding result in series [2] and in series [3] was “binds” each time.

The record behind these values is article PMC8158685, “MexAB-OprM Efflux Pump Interaction with the Peptidoglycan of Escherichia coli and Pseudomonas aeruginosa” (International Journal of Molecular Sciences, 2021).
